Data from patent US20160194391A1 (AstraZeneca / MedImmune, published 2016).
Positions count from the first letter of the chain named.

Legend:
[1] = molecular target: T1, human dimeric IL-23 (eBiosciences 34-8239) (human, UniProt P29460 23-328; Q9NPF7 20-189); experiment: cell-based or functional assay
T1 sequence (looked up) 1: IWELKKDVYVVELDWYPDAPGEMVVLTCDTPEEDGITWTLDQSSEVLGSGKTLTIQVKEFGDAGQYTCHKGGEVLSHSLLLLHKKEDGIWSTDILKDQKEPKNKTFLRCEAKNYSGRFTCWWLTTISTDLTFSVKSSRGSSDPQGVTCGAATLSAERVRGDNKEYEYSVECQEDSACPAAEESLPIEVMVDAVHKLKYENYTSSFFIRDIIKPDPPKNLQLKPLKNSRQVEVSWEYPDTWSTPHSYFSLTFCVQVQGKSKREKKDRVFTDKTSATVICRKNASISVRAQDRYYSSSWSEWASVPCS
T1 sequence (looked up) 2: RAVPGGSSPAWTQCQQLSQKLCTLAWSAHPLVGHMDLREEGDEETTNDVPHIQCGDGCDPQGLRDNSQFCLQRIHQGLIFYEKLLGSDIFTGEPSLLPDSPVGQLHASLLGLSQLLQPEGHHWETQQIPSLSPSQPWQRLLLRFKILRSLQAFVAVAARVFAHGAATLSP

IL-23 p40-p19-His [2] = molecular target: T2, IL-23 p40-p19-His (human); experiment: ELISA on IL-23 p40-p19-His (coated directly or through anti-His)
T2 construct: Single-chain fusion coated on the IL-23 ELISA plates; also called p40:p19-6×HIS
T2 chain: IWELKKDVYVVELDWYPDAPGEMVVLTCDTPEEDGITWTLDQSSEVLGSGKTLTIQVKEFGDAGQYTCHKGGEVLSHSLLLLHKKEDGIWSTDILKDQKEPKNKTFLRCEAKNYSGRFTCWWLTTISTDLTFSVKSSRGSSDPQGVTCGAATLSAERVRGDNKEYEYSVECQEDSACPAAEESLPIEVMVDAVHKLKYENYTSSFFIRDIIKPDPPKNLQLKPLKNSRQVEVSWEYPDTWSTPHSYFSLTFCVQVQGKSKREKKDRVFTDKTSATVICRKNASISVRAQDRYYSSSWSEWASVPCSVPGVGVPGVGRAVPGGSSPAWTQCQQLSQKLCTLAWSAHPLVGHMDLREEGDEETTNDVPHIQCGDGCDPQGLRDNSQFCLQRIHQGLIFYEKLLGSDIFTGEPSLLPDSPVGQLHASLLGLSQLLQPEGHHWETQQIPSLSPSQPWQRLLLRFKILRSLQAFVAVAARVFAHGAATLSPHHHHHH
Experimental: For the indirect binding method anti-His antibody (Cat # A00613, GenScript Corp., New Jersey, USA) was added to the plates in 100 μl/well of PBS at 0.01-0.02 ug/ml. Plates were incubated 1 hour at 37C, or overnight at 4C. To block non-specific binding 100 μl/well PBS containing 10% goat serum (Cat #16210-072, Invitrogen, USA) was added to each well, after which plates were rinsed 5 times with de-ionized water. IL-23 p40-p19-His (SEQ ID 4) in 100 μl/well PBS/10% goat serum at 0.5 μg/ml was added and incubated for 1 hour at room temperature.
For the direct binding method IL-23 p40-p19-His (SEQ ID 4) was added to an ELISA plate in 100 μl PBS at 0.5 μg/ml. Plates were incubated 1 hour at 37C, or overnight at 4C. To block non-specific binding 100 μl/well PBS containing 10% goat serum (Cat #16210-072, Invitrogen, USA) was added to each well. Plates were incubated 1 hour at room temperature.
After IL-23 binding, plates were rinsed 5 times with de-ionized water. To each well was added 50 μl PBS/10% goat serum. Test samples were then added at 50 μl/well. Plates were incubated 1 hour at room temperature and were rinsed 5 times with de-ionized water. To each well was added 100 μl peroxidase-conjugated goat anti-rabbit IgG (Cat. #111-035-008, Jackson Immuno Research) diluted 1:5000 in PBS/10% goat serum. Plates were incubated 1 hour at room temperature, then washed 5 times with de-ionized water. TMB substrate (Thermo Scientific, Rockford, Ill., USA) was added at 100 μl/well. The reaction was stopped with 100 μl N H₂SO₄ (JT Baker, Phillipsburg, N.J., USA). Absorbance was measured at 450 nm using a Molecular Devices M2 plate reader.

[3] = molecular target: T1, human dimeric IL-23 (eBiosciences …); experiment: cell-based or functional assay; remark: listed apart in the source
human IL-12 [4] = molecular target: T3, human IL-12 (human, UniProt P29459 23-219; P29460 23-328); experiment: ELISA, human IL-12 coated on the plate; antibody concentration not given [Binding to Human IL-12]
T3 construct: Bioassay used Prospec-Tany Cyt-362
T3 sequence (looked up) 1: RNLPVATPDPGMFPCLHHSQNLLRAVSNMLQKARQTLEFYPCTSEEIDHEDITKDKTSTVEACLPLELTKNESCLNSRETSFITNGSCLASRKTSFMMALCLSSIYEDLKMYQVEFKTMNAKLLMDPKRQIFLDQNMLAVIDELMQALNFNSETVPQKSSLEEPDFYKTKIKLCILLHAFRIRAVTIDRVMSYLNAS
T3 sequence (looked up) 2: T1 sequence (looked up) 1

human IL-6 [5] = molecular target: T4, human IL-6 (human, UniProt P05231 30-212); experiment: cell-based or functional assay
Primate IL-6 = molecular target: T5, Primate IL-6 (Macaca mulatta, UniProt P51494); experiment: cell-based or functional assay
T5 sequence (cytokine, looked up): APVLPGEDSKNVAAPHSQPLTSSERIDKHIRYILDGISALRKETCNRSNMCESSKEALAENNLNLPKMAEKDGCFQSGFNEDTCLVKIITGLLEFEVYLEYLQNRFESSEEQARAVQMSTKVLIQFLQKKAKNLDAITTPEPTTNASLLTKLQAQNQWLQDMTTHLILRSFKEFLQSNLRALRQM

human IL-6 [6] = molecular target: T4, human IL-6; experiment: SPR (SensiQ Pioneer), mAb captured on protein G, IL-6 as analyte (3×FLAG-IL-6 or IL-6 CYT-213, 1-100 nM), 25 C, 1:1 model
Experimental: Equilibrium constants for rabbit human chimeric mAbs were determined by binding the mAb to the protein G coated chip followed by binding of each analyte (IL-6 or IL-23) to its respective mAb. In order to minimize mass transfer effects, the surface densities of the mAbs for each analyte were adjusted so that as analyte binding approached saturation its corresponding RU fell between 200 and 300. […] For each binding and dissociation cycle the chip surface was regenerated with 15 uL of 20 mM NaOH (5671-02, Mallinckrodt Baker, Philliphsburg, N.J.). The assay temperature was maintained at 25° C. with an analyte flow rate of 50 μL/min and included a 2 minute association phase and 10-30 minute dissociation phase. The on/off rates (kₐ/kd) and dissociation constants (KD) were determined using the format described above along with pseudo-first-order 1:1 interaction model software (Qdat, ICx Nomadics, Stillwater, Okla.).

IL-23 p40-p19-His [7] = molecular target: T2, IL-23 p40-p19-His; experiment: ELISA on IL-23 p40-p19-His
human IL-12 [8] = molecular target: T3, human IL-12; experiment: cell-based or functional assay

B1: 34E11 chimeric mAb (antibody, V domains shown)
VH: QEQLKESGGGLVTPGGSLTLTCTVSGFSLSTYDINWVRQAPGKGLEWIGYIYRGSPYYADWAKGRFTISSTSTTVGLKITSPTTVDTATYFCTRNLYSVNVLWGPGTLVTVS
VL: LVMTQTPSSTSAAVGDTVTIKCQASQSISSRLAWYQQKPGQPPKLLIYSASTLASGVPSRFKGSGSGTDYTLTISGVQREDAATYYCLGSYSNTIRTFGAGTKVEIKR
notes: Rabbit/human chimeric IgG (human IgG1, kappa); HEK293; also called 34E11 clone
EC50, inhibition of IL-23 induced IL-17 secretion by mouse spleen cells [1]: 0.05 ng/mL | binding result (IL-23 p40-p19-His [2]): binds

B2: 49B7 chimeric mAb (antibody, V domains shown)
VH: QSLEESGGRLVTPGGSLTLTCTVSGIDLSDYDMSWVRQAPGKGLEWIGIVYDIGTIYYAPWAEGRFTISKTSTTVDLKMSSLTTEDTATYFCAREAPGYSDGDIWGPGTLVTVSS
VL: ALVMTQTPSSVSAAVGGTVTINCQASETVDNNKRLSWYQQKPGQPPKLLIYGAATLASGVPSRFKGSGSGAHFTLTISNVQREDAATYVCGGYKDSTDVGFGGGTELEILR
notes: Rabbit/human chimeric IgG (human IgG1, kappa); HEK293
EC50, inhibition of IL-23 induced IL-17 secretion by mouse spleen cells [1]: 0.988 ng/mL | IC50 (read off the curve) (IL-17 from mouse splenocytes, OD450) [3]: ~0.6 ng/mL | binding result (human IL-12 [4]): binds

B3: 35H4 chimeric mAb (antibody, V domains shown)
VH: B2 VH with V75M, R94T
VL: LVMTQTPSSVSAAVGGTVTINCQASETVGNNNRLSWYQQKPGQPPKLLIYGAATLASGVPSRFKGSGSGAHFTLTISNVQREDVATYVCGGYKDSTDVGFGGGTELEILR
notes: Rabbit/human chimeric IgG (human IgG1, kappa); HEK293; also called 35H4 clone
binding result (IL-23 p40-p19-His [2]): binds

B4: 18D4 chimeric mAb (antibody, V domains shown)
VH: QSVEESGGRLVTPGTPLTLTCTVSGFSLSSYAMTWVRQAPGKGLEWIGTSYVYSGDTWYASWVKGRFTISKTSTTVDLKITSPTTEDTATYFCARVGDYDDYGAHDVFDSWGPGTLVTVSS
VL: YDMTQTPASVEVAVGGTVTIKCQASESISSWLSWYQQKPGQRPKLLLYRASTLASGVSSRFSGSGYGTEFTLTISGVQCEDAATYYCQQGYTGGNVDNAFGGGTKVVVVR
notes: Rabbit/human chimeric IgG (human IgG1, kappa); HEK293; also called 18D4 clone
EC50, inhibition of IL-6 induced B9 cell proliferation (human IL-6 [5]): 0.054 ng/mL | IC50 (read off the curve) (B9 proliferation, OD570-600) (Primate IL-6): ~4 ng/mL | Kd (human IL-6 [6]): 0.128 nM | koff (human IL-6 [6]): 8.49e-05 s⁻¹ | kon (human IL-6 [6]): 666000 M⁻¹ s⁻¹

B5: 4F3 chimeric mAb (antibody, V domains shown)
VH: QSVEESGGRLVTPGTPLTLTCAVSGFSLSGYTMIWVRQAPGEGLEWIGIISSSGNTYYASWVKGRFTISKTSTTVDLKMISPTTEDTATYFCARGSGAYISDYFNVWGPGTLVTVSS
VL: FELTQTPSSVEAAVEGTVTIKCQASQSIDSWLSWYQQKPGQPPKLLIYSASKLAPGVPSRFSGSGSGTQFTLTIGDLECADAATYYCQSYYDVNAGYGFGGGTEVVVVR
notes: Rabbit/human chimeric IgG (human IgG1, kappa); HEK293; also called mAb 4F3
EC50: concentration necessary to inhibit bioactivity of 50 pg/ml of IL-6 [1]: 2.34 ng/mL | binding result (IL-23 p40-p19-His [7]): binds | IC50 (read off the curve) (interferon-gamma from NK92 cells, OD450) (human IL-12 [8]): ~2 ng/mL

B6: 5C5 chimeric mAb (antibody, V domains shown)
VH: QSVEESGGRLVTPGTPLTLTCTVSGFSLSSYTMIWVRQAPGEGLEWIGIISAGGSAYYASWVNGRFTISKTSTTVDLKMTSPTTGDTATYFCARGSGTYTSDYFNIWGPGTLVTVSS
VL: B5 VL with E15G, S33A, P55T, G75S, V93A, E104K
notes: Rabbit/human chimeric IgG (human IgG1, kappa); HEK293; also called mAb 5C5
EC50: concentration necessary to inhibit bioactivity of 50 pg/ml of IL-6 [1]: 1.91 ng/mL | binding result (IL-23 p40-p19-His [7]): binds | IC50 (read off the curve) (interferon-gamma from NK92 cells, OD450) (human IL-12 [8]): ~0.9 ng/mL

B7: 16C6 chimeric mAb (antibody, V domains shown)
VH: QSVEESGGRLVTPGTPLTLTCTVSGFSLNSYSMSWVRQAPGKGLEWIGVIGLGGSAYYASWAKGRFTISGASTTVDLKITSPTTEDTATYFCARATYSDDNIWGPGTLVTVSS
VL: DVVMTQTPSSTSAAVGGTVTIKCQASQSISSWLSWYQQKPGQRPKPLIVRASTLASGVPSRFKGNRSGTEYTLTISGVQREDAAAYYCLGGDGNVSNFGGGTKVVVVR
notes: as for B2
EC50, inhibition of IL-23 induced IL-17 secretion by mouse spleen cells [1]: 0.219 ng/mL | binding result (IL-23 p40-p19-His [2]): binds
